Patent publication US20260152567A1 (CSPC MEGALITH BIOPHARMACEUTICAL, published 2026)

T1: cynomolgus monkey CD73 protein (cynomolgus monkey, UniProt A0A2K5V5U7 27-547)
T1 construct: construct not described
T1 sequence: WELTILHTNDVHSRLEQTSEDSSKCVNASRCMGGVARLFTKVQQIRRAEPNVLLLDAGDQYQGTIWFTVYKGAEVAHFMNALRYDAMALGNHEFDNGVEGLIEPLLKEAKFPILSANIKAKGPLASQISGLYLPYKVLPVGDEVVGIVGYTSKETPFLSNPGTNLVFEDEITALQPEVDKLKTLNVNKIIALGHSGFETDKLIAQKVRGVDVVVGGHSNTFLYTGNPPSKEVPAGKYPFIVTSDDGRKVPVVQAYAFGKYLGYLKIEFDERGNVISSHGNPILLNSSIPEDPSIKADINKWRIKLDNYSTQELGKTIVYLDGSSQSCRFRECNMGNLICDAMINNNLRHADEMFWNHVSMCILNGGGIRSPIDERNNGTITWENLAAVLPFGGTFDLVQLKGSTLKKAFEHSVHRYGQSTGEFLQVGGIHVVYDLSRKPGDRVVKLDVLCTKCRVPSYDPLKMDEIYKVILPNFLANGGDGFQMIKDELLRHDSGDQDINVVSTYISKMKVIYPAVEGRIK

T2: human CD73 on the cell surface (MDA-MB-231 and SKOV3 tumor cells) (human, UniProt P21589 27-549)
T2 construct: whole, on cells; also called cell surface CD73; CD73 on the surface of human tumor cells
T2 sequence (looked up): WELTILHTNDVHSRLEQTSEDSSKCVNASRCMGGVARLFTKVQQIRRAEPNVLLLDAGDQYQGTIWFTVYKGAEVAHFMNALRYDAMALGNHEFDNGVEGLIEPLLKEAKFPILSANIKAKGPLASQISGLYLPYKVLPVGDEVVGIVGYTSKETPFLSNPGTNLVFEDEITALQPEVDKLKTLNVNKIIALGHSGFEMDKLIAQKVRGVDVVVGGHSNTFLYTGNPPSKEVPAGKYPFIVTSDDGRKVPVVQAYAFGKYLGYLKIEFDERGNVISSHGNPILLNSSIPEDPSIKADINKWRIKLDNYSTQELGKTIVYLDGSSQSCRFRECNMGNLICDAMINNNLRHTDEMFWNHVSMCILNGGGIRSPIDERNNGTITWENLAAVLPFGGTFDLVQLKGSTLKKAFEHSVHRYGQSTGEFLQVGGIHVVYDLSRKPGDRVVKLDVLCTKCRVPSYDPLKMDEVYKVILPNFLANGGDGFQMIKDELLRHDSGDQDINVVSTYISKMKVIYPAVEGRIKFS

T3: C-terminal portion of the CD73 protein (Homo sapiens (Human), UniProt P21589 337-549)
T3 construct: also called CD73 C-terminal protein; C-terminus of the CD73 protein
T3 sequence: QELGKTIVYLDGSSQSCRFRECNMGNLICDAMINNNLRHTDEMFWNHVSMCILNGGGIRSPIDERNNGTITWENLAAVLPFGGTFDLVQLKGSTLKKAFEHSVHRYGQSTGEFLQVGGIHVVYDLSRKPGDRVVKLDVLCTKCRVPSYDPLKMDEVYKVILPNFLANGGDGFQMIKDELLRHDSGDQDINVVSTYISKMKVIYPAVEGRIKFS

B1: Hab1F2F9.15 (antibody, human IgG1, kappa, L234A L235A, V domains shown)
VH: QVQLVQSGAEVKKPGASVKVSCKASGYTFTSYWMHWVRQAPGQRLEWMGNINPSNGGTKYSQKFQGRVTITVDTSASTAYMELSSLRSEDTAVYYCARRDYGSPSYWGQGTTVTVSS
VL: DIQMTQSPSSLSASVGDRVTITCKASQDINSYLTWFQQKPGKAPKSLIYRTNILLDGVPSRFSGSGSGTDYTLTISSLQPEDFATYYCLQYHEFPVTFGGGTKLEIKR
notes: Humanized 1F2F9; also called Huab1F2F9.15; HuablF2F9.15
B2: Hab7C3C2.5 (antibody, human IgG1, kappa, L234A L235A, V domains shown)
VH: QVQLVQSGAEVKKPGASVKVSCKASGYTFTSYDINWVRQATGQGLEWIGWIYPRDGFTKYNEKFKGRVTLTVNTSISTAYMELSSLRSEDTAVYYCARKEGYRGDWYFDVWGQGTTVTVSS
VL: DIQMTQSPSSLSASVGDRVTITCRASGNVHNYLAWYQQKPGKAPKLLLYNAKTLASGVPSRFSGSGSGTDYTLTISSLQPEDFATYYCQHFWSTPWTFGGGTELEIKR
notes: Humanized 7C3C2; also called Hab7C3C.5

Experiments:
[1] = biological target: T1, cynomolgus monkey CD73 protein; assay: BLI (Fortebio), cynomolgus CD73 on HIS1K biosensors, antibody as analyte
Method: In this example, the cross-binding ability of the exemplary humanized anti-CD73 antibodies of the present application to cynomolgus monkey CD73 was assayed by a Fortebio experiment. The specific implementation steps included immobilizing the cynomolgus monkey CD73 protein onto HIS1K biosensors. […] The times for the ligand-analyte binding and dissociation were 120 s and 300 s, respectively. The data of the antigen-antibody affinity were calculated by regression according to the binding curves using an analysis software.

[2] = biological target: T2, human CD73 on the cell surface …; assay: flow cytometry on MDA-MB-231 cells
Method: (§1) In this example, the exemplary antibodies of the present application were compared with anti-CD73 antibodies described in other patent applications. Antibodies MEDI9447 and Hu101-28 (with CDR sequences from PCT patent applications WO 2016/075099 and WO 2018/137598, respectively) were cloned into eukaryotic expression vectors containing the hIgG1-kappa constant region. The binding ability of the humanized antibodies Hab7C3C2.5 and Hab1F2F9.15 to cell surface CD73 was assessed using tumor cell lines MDA-MB-231 and SKOV3 which endogenously express human CD73 on the cell surface. The cells were seeded in a 96-well plate at a density of 2×10⁶ cells/mL, with 100 μL per well. 4-fold gradient dilutions (0-100 nM) of the antibodies were added, and the mixture was incubated at 4° C. for 1 h. A goat anti-human secondary antibody was added, and the mixture was incubated at 4° C. in the dark for 50 min for labeling. The fluorescence intensity of the cells was then measured by a flow cytometer.

[3] = biological target: T2, human CD73 on the cell surface …; assay: flow cytometry on SK-OV-3 cells
Method: as §1

[4] = biological target: T3, C-terminal portion of the CD73 protein; assay: ELISA, plate coated with CD73 C-terminal protein at 1 µg/mL
Method: In this example, the C-terminal portion (SEQ ID NO. 41) and the N-terminal portion (SEQ ID NO. 42) of the CD73 protein were separately constructed, and the epitopes recognized by the antibodies were detected by ELISA method. Elisa plates were respectively coated with the CD73 N-terminal and C-terminal proteins at a concentration of 1 μg/mL. The test antibodies were diluted in a gradient.

[5] = biological target: T2, human CD73 on the cell surface …; assay: cell-based or functional assay

Binder	Kd [1] [nM]	koff [1] [s⁻¹]	kon [1] [M⁻¹ s⁻¹]	EC50 [2] [nM]	EC50 [3] [nM]	binding result [4]	Cellular enzymatic activity inhibition IC50 [5] [nM]
B1	0.814	0.0017	2.09e+06	0.48	0.19	no binding	0.069
B2	0.732	0.00299	4.08e+06	0.41	0.07	no binding	0.027
